In patent publication US6544753 (MERCK, dated 2003):

T1: human GALR2 (human, UniProt O43603 1-387)
T1 sequence: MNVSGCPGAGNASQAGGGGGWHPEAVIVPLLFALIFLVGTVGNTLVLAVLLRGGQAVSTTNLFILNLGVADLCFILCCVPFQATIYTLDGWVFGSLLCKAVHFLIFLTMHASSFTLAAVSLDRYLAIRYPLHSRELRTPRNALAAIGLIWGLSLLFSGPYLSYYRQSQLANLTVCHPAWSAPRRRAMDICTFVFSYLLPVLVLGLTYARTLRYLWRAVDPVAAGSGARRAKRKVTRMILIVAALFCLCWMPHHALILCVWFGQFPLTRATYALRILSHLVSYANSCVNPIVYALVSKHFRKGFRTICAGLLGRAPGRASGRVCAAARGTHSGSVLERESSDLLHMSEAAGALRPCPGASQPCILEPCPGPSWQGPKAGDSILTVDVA

B1: rat Gal(2-29) (peptide, UniProt P10683 34-61, looked up)
peptide: WTLNSAGYLLGPHAIDNHRSFSDKHGLT
B2: rat Gal (3-29) (peptide, UniProt P10683 35-61, looked up)
peptide: TLNSAGYLLGPHAIDNHRSFSDKHGLT

Each molecule was assayed against T1, human GALR2 (assay: cell-based or functional assay).

Row | aequorin bioluminescence in 293-AEQ17 cells, EC50 [nM] | Molecule
1 | 44 | M35 (peptide)
2 | 8.8 | M40 (peptide)
3 | 31 | B1
4 | > 10000 | B2
